Assay results taken from patent US20220025010A1 (ANTAG THERAPEUTICS, published 2022).
Where no end group is shown, it is not given here. The star is where a group is joined. C16 diacid = O=C(O)CCCCCCCCCCCCCCC(=O)*

T1: human GIP receptor (human, UniProt P48546 22-466)
T1 sequence (looked up): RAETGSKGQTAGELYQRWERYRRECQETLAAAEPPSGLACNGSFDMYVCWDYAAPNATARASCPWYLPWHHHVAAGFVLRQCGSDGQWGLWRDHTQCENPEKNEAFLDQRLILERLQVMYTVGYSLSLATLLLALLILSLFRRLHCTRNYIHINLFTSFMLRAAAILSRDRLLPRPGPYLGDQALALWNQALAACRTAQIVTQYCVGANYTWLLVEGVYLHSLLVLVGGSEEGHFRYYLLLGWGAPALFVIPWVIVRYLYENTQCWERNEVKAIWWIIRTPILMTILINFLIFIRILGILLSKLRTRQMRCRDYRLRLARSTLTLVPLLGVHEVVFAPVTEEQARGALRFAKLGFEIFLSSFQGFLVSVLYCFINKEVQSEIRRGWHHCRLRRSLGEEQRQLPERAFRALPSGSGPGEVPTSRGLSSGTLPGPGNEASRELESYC

B1: AT269 (peptide)
peptide: GGTFISDYSIAMDRIKQQDFVNWLLAQR
HELM: PEPTIDE1{G.G.T.F.I.S.D.Y.S.I.A.M.D.R.I.K.Q.Q.D.F.V.N.W.L.L.A.Q.R}|PEPTIDE2{[O=C(O)CCCCCCCCCCCCCCC(=O)[*:2]].[gGlu].[O=C(COCCOCCN[*:1])[*:2]]}$PEPTIDE1,PEPTIDE2,16:R3-3:R2$$$V2.0; N-terminus assumed
SMILES: CC[C@H](C)[C@H](NC(=O)[C@H](CO)NC(=O)[C@H](Cc1ccc(O)cc1)NC(=O)[C@H](CC(=O)O)NC(=O)[C@H](CO)NC(=O)[C@@H](NC(=O)[C@H](Cc1ccccc1)NC(=O)[C@@H](NC(=O)CNC(=O)CN)[C@@H](C)O)[C@@H](C)CC)C(=O)N[C@@H](C)C(=O)N[C@@H](CCSC)C(=O)N[C@@H](CC(=O)O)C(=O)N[C@@H](CCCNC(=N)N)C(=O)N[C@H](C(=O)N[C@@H](CCCCNC(=O)COCCOCCNC(=O)CC[C@H](NC(=O)CCCCCCCCCCCCCCC(=O)O)C(=O)O)C(=O)N[C@@H](CCC(N)=O)C(=O)N[C@@H](CCC(N)=O)C(=O)N[C@@H](CC(=O)O)C(=O)N[C@@H](Cc1ccccc1)C(=O)N[C@H](C(=O)N[C@@H](CC(N)=O)C(=O)N[C@@H](Cc1c[nH]c2ccccc12)C(=O)N[C@@H](CC(C)C)C(=O)N[C@@H](CC(C)C)C(=O)N[C@@H](C)C(=O)N[C@@H](CCC(N)=O)C(=O)N[C@@H](CCCNC(=N)N)C(=O)O)C(C)C)[C@@H](C)CC
B2: AT261 (peptide)
peptide: PGTFISDYSIAMDRIK(C16 diacid)QQDFVNWLLAQR-OH
modifications: N-terminus assumed
SMILES: CC[C@H](C)[C@H](NC(=O)[C@H](CO)NC(=O)[C@H](Cc1ccc(O)cc1)NC(=O)[C@H](CC(=O)O)NC(=O)[C@H](CO)NC(=O)[C@@H](NC(=O)[C@H](Cc1ccccc1)NC(=O)[C@@H](NC(=O)CNC(=O)[C@@H]1CCCN1)[C@@H](C)O)[C@@H](C)CC)C(=O)N[C@@H](C)C(=O)N[C@@H](CCSC)C(=O)N[C@@H](CC(=O)O)C(=O)N[C@@H](CCCNC(=N)N)C(=O)N[C@H](C(=O)N[C@@H](CCCCNC(=O)CCCCCCCCCCCCCCC(=O)O)C(=O)N[C@@H](CCC(N)=O)C(=O)N[C@@H](CCC(N)=O)C(=O)N[C@@H](CC(=O)O)C(=O)N[C@@H](Cc1ccccc1)C(=O)N[C@H](C(=O)N[C@@H](CC(N)=O)C(=O)N[C@@H](Cc1c[nH]c2ccccc12)C(=O)N[C@@H](CC(C)C)C(=O)N[C@@H](CC(C)C)C(=O)N[C@@H](C)C(=O)N[C@@H](CCC(N)=O)C(=O)N[C@@H](CCCNC(=N)N)C(=O)O)C(C)C)[C@@H](C)CC
B3: AT259 (peptide)
peptide: SGTFISDYSIAMDRIK(C16 diacid)QQDFVNWLLAQR-OH
modifications: N-terminus assumed
SMILES: CC[C@H](C)[C@H](NC(=O)[C@H](CO)NC(=O)[C@H](Cc1ccc(O)cc1)NC(=O)[C@H](CC(=O)O)NC(=O)[C@H](CO)NC(=O)[C@@H](NC(=O)[C@H](Cc1ccccc1)NC(=O)[C@@H](NC(=O)CNC(=O)[C@@H](N)CO)[C@@H](C)O)[C@@H](C)CC)C(=O)N[C@@H](C)C(=O)N[C@@H](CCSC)C(=O)N[C@@H](CC(=O)O)C(=O)N[C@@H](CCCNC(=N)N)C(=O)N[C@H](C(=O)N[C@@H](CCCCNC(=O)CCCCCCCCCCCCCCC(=O)O)C(=O)N[C@@H](CCC(N)=O)C(=O)N[C@@H](CCC(N)=O)C(=O)N[C@@H](CC(=O)O)C(=O)N[C@@H](Cc1ccccc1)C(=O)N[C@H](C(=O)N[C@@H](CC(N)=O)C(=O)N[C@@H](Cc1c[nH]c2ccccc12)C(=O)N[C@@H](CC(C)C)C(=O)N[C@@H](CC(C)C)C(=O)N[C@@H](C)C(=O)N[C@@H](CCC(N)=O)C(=O)N[C@@H](CCCNC(=N)N)C(=O)O)C(C)C)[C@@H](C)CC
B4: AT271 (peptide)
peptide: SGTFISDYSIAMDRIKQQDFVNWLLAQR
HELM: PEPTIDE1{S.G.T.F.I.S.D.Y.S.I.A.M.D.R.I.K.Q.Q.D.F.V.N.W.L.L.A.Q.R}|PEPTIDE2{[O=C(O)CCCCCCCCCCCCCCC(=O)[*:2]].[gGlu].[O=C(COCCOCCN[*:1])[*:2]]}$PEPTIDE1,PEPTIDE2,16:R3-3:R2$$$V2.0; N-terminus assumed
SMILES: CC[C@H](C)[C@H](NC(=O)[C@H](CO)NC(=O)[C@H](Cc1ccc(O)cc1)NC(=O)[C@H](CC(=O)O)NC(=O)[C@H](CO)NC(=O)[C@@H](NC(=O)[C@H](Cc1ccccc1)NC(=O)[C@@H](NC(=O)CNC(=O)[C@@H](N)CO)[C@@H](C)O)[C@@H](C)CC)C(=O)N[C@@H](C)C(=O)N[C@@H](CCSC)C(=O)N[C@@H](CC(=O)O)C(=O)N[C@@H](CCCNC(=N)N)C(=O)N[C@H](C(=O)N[C@@H](CCCCNC(=O)COCCOCCNC(=O)CC[C@H](NC(=O)CCCCCCCCCCCCCCC(=O)O)C(=O)O)C(=O)N[C@@H](CCC(N)=O)C(=O)N[C@@H](CCC(N)=O)C(=O)N[C@@H](CC(=O)O)C(=O)N[C@@H](Cc1ccccc1)C(=O)N[C@H](C(=O)N[C@@H](CC(N)=O)C(=O)N[C@@H](Cc1c[nH]c2ccccc12)C(=O)N[C@@H](CC(C)C)C(=O)N[C@@H](CC(C)C)C(=O)N[C@@H](C)C(=O)N[C@@H](CCC(N)=O)C(=O)N[C@@H](CCCNC(=N)N)C(=O)O)C(C)C)[C@@H](C)CC

Target: T1, human GIP receptor
Assay: cell-based or functional assay

| Binder | CisBio cAMP agonism % Efficacy [%] | DiscoveRx cAMP agonism Emax | DiscoveRx cAMP antagonism IC50 [nM] | DiscoveRx cAMP antagonism log IC50 [log M] | CisBio cAMP antagonism % inhib [%] | CisBio cAMP antagonism IC50 [nM] | CisBio cAMP antagonism pIC50 |
| --- | --- | --- | --- | --- | --- | --- | --- |
| B1 | 0 | 12 | 91 | -7 |  |  |  |
| B2 | 0 | 24 | 46 | -7.3 | 62 | 200 | 6.7 |
| B3 | 9 | 20 | 19 | -7.7 | 72 | 58.4 | 7.2 |
| B4 | 2 | 9 | 71 | -7.2 | 73 | 85.8 | 7.1 |
